Experimental findings from the supplement of paper PMC12042874 are described below.

± gives the uncertainty stated by the source.

The data set can be described thus: amyloid nucleation score (Sup35N fusion, yeast selection) (log enrichment); library NNK3; higher = more nucleation; inactive = no reads after selection. The method, boiled down:
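Plasmid inserts were Illumina-sequenced at input and output from psi-negative yeast expressing Sup35N fused to peptides of 20 random codons. The yeast were induced with 100 μM copper sulfate for 24 hours and grown 7 days at 30°C on medium lacking adenine and uracil, and sequences with under 100 input reads were excluded. Nucleation score is the DiMSum log enrichment of output over input reads, centred on the mode score of non-aggregating sequences.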
The substance FKWQEW showed an amyloid nucleation score of -0.943 ± 1.3.
For FLERISFYIKLVSRSYGGTS, the amyloid nucleation score entry is “inactive”.
As for FLFFTEAGYM, the amyloid nucleation score entry is “inactive”.
Take FLFWILDALLLQVFQLSPHK: the amyloid nucleation score result was “inactive”.
Regarding FLHPLSLDSNFLNSVCHFKK, the amyloid nucleation score result was “inactive”.
The entry for FLIIDAVLEPVGLLFFTKFS is “inactive”; for FLIPQGERSVLCMGCYFLYA it is 1.85 ± 0.098; for FLLCHYCFFVDTPGRIFYYS it is 0.724 ± 0.18.
For the substance FLLFFAKWCLY, the amyloid nucleation score result is “inactive”.
As for FLLNQIIGQLKHHLFVVSVN, the amyloid nucleation score entry is “inactive”.
Turning to FLMKLWM, the amyloid nucleation score came to 1.66 ± 0.08.
FLMRCISLGGTGANFLLELS: the amyloid nucleation score entry is “inactive”.
In the case of FLPQFDYVQIMVPCYCLEVV, the amyloid nucleation score result was “inactive”.
The value for FLRFSAVDVSNGGNSMLL was “inactive”; that for FLTHVHQINADAFYAIL was 1.84 ± 0.11; that for FLVGPPNL was “inactive”.
Turning to FLYRDSSCRLSLM, the amyloid nucleation score result is “inactive”.
Consider FLYYIPWDYL, for which the amyloid nucleation score result is “inactive”.
Regarding FMFLVFDC, the amyloid nucleation score result was “inactive”.
Take FMGTGHSFGSQNPVSLILKS: the amyloid nucleation score entry is “inactive”.
The entry for FMGVT is “inactive”; for FMHPADVEHGTREYLNVTGG it is “inactive”; for FMKILQVTDWDPGSVYNSSN it is “inactive”.
On to FMNCWQRAGVRSLGVYGNSA, for which the amyloid nucleation score stood at 0.13 ± 0.45.
Take FMNKLGDFNLP: the amyloid nucleation score entry is “inactive”.
In the case of FMSFLICNRILWSGG, the amyloid nucleation score entry was “inactive”.
FMTVQLLH returned an amyloid nucleation score of 1.85 ± 0.1.
For FMYILWRVSKKLFIALMWFR, the amyloid nucleation score entry is “inactive”.
The substance FNFNILTIWIDLLAQLGMT displayed an amyloid nucleation score of 1.85 ± 0.1.
The value for FNGRLVLHHRTVI was “inactive”; that for FNHPNQGVCIHCISGKGWTR was “inactive”.
On to FNLGRVMFLRSLRWCQGLLV, for which the amyloid nucleation score entry was “inactive”.
The entry for FNQAHSVTTDREAYRGRCQG is “inactive”.
FNSYGKLWYFESKDRVYACD registered an amyloid nucleation score of -0.462 ± 1.4.
FNTIAIDTSLVGSNYAGATK: the amyloid nucleation score entry is “inactive”.
For the substance FNVFLSLATGISDGYYMLTA, the amyloid nucleation score result is “inactive”.
The figure for FPDIDLLLLWTHQRDRRSWF is 0.018 ± 0.45; for FPGNLSLNGVIHMFLYDKLW it is “inactive”.
With FPRHCKPRCL, the amyloid nucleation score result was “inactive”.
In the case of FQGSNCP, the amyloid nucleation score entry was “inactive”.
The figure for FQIWCIFYLNMS is 2 ± 0.095; for FQKLEVNKLGIIWNHVLTRK it is “inactive”.
Consider FQNHVSASKVVWHRFNRRKD, for which the amyloid nucleation score entry was “inactive”.
As for FQPMV, the amyloid nucleation score result is “inactive”.
The value for FQVYFLSVYACRCLMARLGS was “inactive”.
The value for FRESFLSSYVEYMTLGPGSN was -0.342 ± 0.87.
With FRFSGWLCWSTALPILVRKD, the amyloid nucleation score result is “inactive”.
FRHFRSLLSVFLVYRFQLSV: the amyloid nucleation score result was “inactive”.
The substance FRIFVRRVI had an amyloid nucleation score of 2.33 ± 0.084.
The entry for FRKETNSSHGLMKWAKEQ is “inactive”.
With FRLKY, the amyloid nucleation score came out at 0.12 ± 0.68.
The value for FRMPDGELSGT was “inactive”; that for FRMQGLKVREA was “inactive”.
Consider FRRLSFMVVFGERKGVVSLG, for which the amyloid nucleation score result is “inactive”.
The entry for FRSVSLWSSN is “inactive”; for FRVEFTVMFLGVCTYSGDAL it is -0.329 ± 0.65.
On to FRYVREAGIGIVG, for which the amyloid nucleation score result is “inactive”.
On to FSACS, for which the amyloid nucleation score entry is “inactive”.
In the case of FSDCQLESGCCHRSRDLIGL, the amyloid nucleation score entry is “inactive”.
In the case of FSFNQWDLLKMSIGCFKRCK, the amyloid nucleation score result was “inactive”.
Regarding FSFTIDAYRHRTTSVLMRMS, the amyloid nucleation score result is “inactive”.
The entry for FSGRMVFNPPIISCSYSWSW is “inactive”.
Turning to FSHHIDTFV, the amyloid nucleation score entry was “inactive”.
As for FSIFSVFEPWMISKFCP, the amyloid nucleation score entry was “inactive”.
For the substance FSITVFFVNIAATSKPYLDK, the amyloid nucleation score result was “inactive”.
The entry for FSIWKV is “inactive”; for FSLFFLCIFFDNRTKFMCLA it is “inactive”; for FSLLPKCLSLSGDRNGFKMC it is “inactive”.
As for FSMVCSFKWL, the amyloid nucleation score entry was “inactive”.
With FSNLYLVMTNCPSRDPPVYT, the amyloid nucleation score result is “inactive”.
In the case of FSPFNAENSETVTCTGCSHC, the amyloid nucleation score result was “inactive”.
As for FSPFYCHILLH, the amyloid nucleation score result was “inactive”.
Take FSRPLPTPESYRW: the amyloid nucleation score was -0.287 ± 1.3.
As to FSSMQDWSFGIYLNSEAPPT, the amyloid nucleation score entry was “inactive”.
Consider FSTFRLSRLCHRDRRSHARQ, for which the amyloid nucleation score result was “inactive”.
Consider FSTQRLNG, for which the amyloid nucleation score entry is “inactive”.
On to FSVGEFCR, for which the amyloid nucleation score result was “inactive”.
Substance FSVGFYFIYMTLKCGSCVQW registered an amyloid nucleation score of -0.362 ± 1.1.
Consider FSVPLVCDIYCLYTDVEYRH, for which the amyloid nucleation score is 2.53 ± 0.059.
The entry for FSWFHRRSYSVVTSLCLMGR is “inactive”.
The value for FSWMC was “inactive”; that for FTCFNGQLVMA was “inactive”; that for FTDFCVCGCNVFDVMFLLQS was 2.67 ± 0.056.
FTGKRSALGCIGVCILF registered an amyloid nucleation score of -0.598 ± 1.2.
On to FTHAIPVYDEVPNHDICDGS, for which the amyloid nucleation score entry is “inactive”.
As for FTLASRLLWGRMCNV, the amyloid nucleation score entry is “inactive”.
As for FTLFMDRVIFASSVDSTEIL, the amyloid nucleation score result is “inactive”.
In the case of FTPLNDDNKCVVSYEY, the amyloid nucleation score entry is “inactive”.
Regarding FTQCNEAGCWHESDTNFMQC, the amyloid nucleation score stood at 0.109 ± 0.75.
On to FTRNCSKWIVG, for which the amyloid nucleation score result is “inactive”.
On to FTRYRNVFKWTMWFSYFWQA, for which the amyloid nucleation score entry is “inactive”.
Regarding FTSDGEYNRVLPGRSQGASF, the amyloid nucleation score was -0.92 ± 2.5.
The entry for FTTCMNYIRRLNRKAPNKCR is “inactive”; for FVCCYVYAQQLRRRYIFNLS it is “inactive”; for FVCSARYNSFRFKATVHNSR it is “inactive”.
In the case of FVFSRNG, the amyloid nucleation score result was “inactive”.
Take FVGNGWSNFSL: the amyloid nucleation score result is “inactive”.
The value for FVHKNPHHRFAQMCTKANCR was “inactive”.
FVKKRLVKGKNFFIELFLMC: the amyloid nucleation score result was “inactive”.
Take FVKLKYINFGCLRGCESGCL: the amyloid nucleation score was 1.42 ± 0.13.
Turning to FVPFERNKMIMKRICEVCVA, the amyloid nucleation score worked out at 0.97 ± 0.11.
In the case of FVRIYNFILLAV, the amyloid nucleation score result was “inactive”.
FVSDRSSGYTGMLIKDAL: the amyloid nucleation score entry is “inactive”.
On to FVSPYRNHVGVGSDADWGFR, for which the amyloid nucleation score result was “inactive”.
For FVSWWNRSYVCVWIKLMNWR, the amyloid nucleation score result was “inactive”.
On to FVYFNT, for which the amyloid nucleation score result is “inactive”.
The value for FVYTDVCSQFFRMGHFDTSY was -0.21 ± 0.7.
FVYWLILYLRRVAERR: the amyloid nucleation score result is “inactive”.
In the case of FWEYVRKLIEYEYLGSR, the amyloid nucleation score entry was “inactive”.
Take FWHENSIAELWICKTLLGKF: the amyloid nucleation score result was “inactive”.
Turning to FWKNHRAIHSMFQRHLRHTF, the amyloid nucleation score result is “inactive”.
Consider FWLGDM, for which the amyloid nucleation score result was “inactive”.
For the substance FWLTNISFDLKFKINSSEFT, the amyloid nucleation score turned out to be 0.205 ± 0.33.
The entry for FWNRWVVQVDSLSMRMSRVA is “inactive”.
Consider FWNVCLDCISR, for which the amyloid nucleation score result was “inactive”.
In the case of FWRYAYNCYCGYSCDQIGDS, the amyloid nucleation score result was “inactive”.
With FWSLNIQGSNYFLHIVNIGR, the amyloid nucleation score result is “inactive”.
FWVRYGPNSQGVGPWTMHRW displayed an amyloid nucleation score of 0.189 ± 0.74.
The figure for FYCFIPGMSVMAPFVTSYYY is 1.91 ± 0.053; for FYEHLVRSNFLSLRRMVRTV it is “inactive”.
The entry for FYFNRHRHHNVCRYLIGHPC is “inactive”; for FYKGKG it is “inactive”.
Turning to FYLGRLSVNGRVVQRHNESM, the amyloid nucleation score result is “inactive”.
Regarding FYLTR, the amyloid nucleation score result is “inactive”.
Regarding FYMASMCCWF, the amyloid nucleation score entry was “inactive”.
For the substance FYMISPTISFLLFGLLANI, the amyloid nucleation score result was “inactive”.
Consider FYPKLPTLSVQDVGHRKPST, for which the amyloid nucleation score result was “inactive”.
Consider FYSIFN, for which the amyloid nucleation score entry is “inactive”.
Turning to FYSSSL, the amyloid nucleation score result was “inactive”.
As to FYSWCR, the amyloid nucleation score entry was “inactive”.
As for FYSYRTCDGRIAGIIAGNRA, the amyloid nucleation score entry was “inactive”.
In the case of FYVASFWYYPKSEHNGA, the amyloid nucleation score result was “inactive”.
FYYRESRQLRLWVYIGSIVY: the amyloid nucleation score entry was “inactive”.
